Data reported in US20190263918A1 (SHANGHAI JIAO TONG UNIVERSITY SCHOOL OF MEDICINE, published 2019).
Values belong to the binder of their own block, whether it stands above or below them.

B4: human FcγRIIB extracellular domain protein (receptor, UniProt P31994 43-217, looked up)
chain: TPAAPPKAVLKLEPQWINVLQEDSVTLTCRGTHSPESDSIQWFHNGNLIPTHTQPSYRFKANNNDSGEYTCQTGQTSLSDPVHLTVLSEWLVLQTPHLEFQEGETIVLRCHSWKDKPLVKVTFFQNGKSKKFSRSDPNFSIPQANHSHSGDYHCTGNIGYTLYSSKPVTITVQAP
notes: extracellular domain; SPR: His-tagged, immobilised; ELISA: biotinylated; also called hFcγRIIB; CD32b
B5: human FcγRIIA-R131 extracellular domain protein (receptor, UniProt P12318 34-217, looked up)
chain: QAAAPPKAVLKLEPPWINVLQEDSVTLTCQGARSPESDSIQWFHNGNLIPTHTQPSYRFKANNNDSGEYTCQTGQTSLSDPVHLTVLSEWLVLQTPHLEFQEGETIMLRCHSWKDKPLVKVTFFQNGKSQKFSRLDPTFSIPQANHSHSGDYHCTGNIGYTLFSSKPVTITVQVPSMGSSSPMG
notes: extracellular domain; SPR: His-tagged, immobilised; ELISA: biotinylated; also called hFcγRIIA-R131; CD32a

Key:
[1] = target: B4; test: SPR (refers to Table 4, Fc fragments)
[2] = target: B4; test: SPR, Biacore T100, FcγR extracellular domain immobilised, 1:1 model
[3] = target: B5; test: as above
[4] = target: T1, human FcγRIIIA-F158 extracellular domain protein (human, UniProt P08637 17-208); test: SPR, Biacore T100, FcγR extracellular domain immobilised
T1 construct: extracellular domain; SPR: His-tagged, immobilised; also called hFcγRIIIA-F158; CD16a

[5] = target: T2, human FcγRI extracellular domain protein (human, UniProt P12314 16-292); test: SPR, Biacore T100, FcγR extracellular domain immobilised, 1:1 model
T2 construct: extracellular domain; also called hFcγRI; CD64

[6] = target: Fc fragment of heavy chain constant region G1 (hIgG1) (human, UniProt P0DOX5 234-449 = IgG part); test: as above
[7] = target: B4; test: SPR; fold against G1
[8] = target: B4; test: SPR; [lower of KD(hFcγRIIA-R131) and KD(hFcγRIIIA-F158)]/KD(hFcγRIIB)
[9] = target: T2, human FcγRI extracellular domain protein; test: SPR, Biacore T100, FcγR extracellular domain immobilised
[10] = target: T3, recombinant human CD40 protein (human, UniProt P25942 21-193); test: ELISA: plate coated with recombinant human CD40, antibody in gradient dilutions, biotinylated anti-human Igκ light chain secondary antibody, SAV-HRP, A650
T3 construct: Bought; coated on the ELISA plate; also called hCD40
Method: For assay on anti-human CD40 antibodies, an ELISA plate was coated with recombinant human CD40 protein (Novoprotein Scientific Inc.) overnight at atmospheric temperature, blocked using 1% BSA at room temperature for 2 h, and then washed three times with PBST (0.05% Tween 20 in PBS). To each well was added […] gradient dilutions of the human agonistic CD40 antibody. The plate was incubated at room temperature for 1 h and washed four times with PBST. Then, 100 ng/ml biotinylated secondary antibody against human Igκ light chain was added, incubated at room temperature for 1 h and washed 4 times with PBST. SAV-HRP at an appropriate concentration was added, incubated at room temperature for 1 h. Then, chromogenic substrate was added to react for 5 minutes, and optical absorbance was determined at 650 nm.

[11] = target: B5; test: ELISA: plate coated with the anti-human CD40 antibody, biotinylated human FcγRIIA-R131 extracellular domain, streptavidin-HRP, A650 [FcγRIIA-R131 panels]
Method: (§1) The ELISA plate was coated with 100 μL antibody at an appropriate concentration overnight, supernatant being discarded. The plate was blocked with 1% BSA in PBS for 2 hours, followed by washing with PBST (PBS with 0.05% Tween 20). Then, biotinylated FcγR extracellular domain protein (Sino Biologic Inc., Beijing China) at a concentration as appropriate was added and incubated at room temperature for 1 hour, supernatant being discarded, followed by PBST wash. Streptavidin-HRP (BD Biosciences) was added and incubated at room temperature for 1 hour for detection of biotin protein. After removal of supernatant, developing solution was added to react for 20-40 minutes, and absorbance was determined at 650 nm (A650).

[12] = target: B5; test: ELISA: plate coated with the anti-human CD40 antibody, biotinylated human FcγRIIA-R131 extracellular domain, streptavidin-HRP, A650 [upper FcγRIIA-R131 panel]
Method: as §1

T2 sequence (P12314 16-292): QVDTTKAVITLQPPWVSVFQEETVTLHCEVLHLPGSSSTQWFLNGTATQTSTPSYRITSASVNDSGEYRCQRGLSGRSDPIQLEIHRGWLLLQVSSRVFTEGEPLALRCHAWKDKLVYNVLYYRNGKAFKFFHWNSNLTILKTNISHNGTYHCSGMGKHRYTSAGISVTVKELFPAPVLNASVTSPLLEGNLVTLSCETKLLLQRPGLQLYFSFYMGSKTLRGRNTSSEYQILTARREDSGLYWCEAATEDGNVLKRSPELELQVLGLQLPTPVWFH
T3 sequence (P25942 21-193 limits assumed): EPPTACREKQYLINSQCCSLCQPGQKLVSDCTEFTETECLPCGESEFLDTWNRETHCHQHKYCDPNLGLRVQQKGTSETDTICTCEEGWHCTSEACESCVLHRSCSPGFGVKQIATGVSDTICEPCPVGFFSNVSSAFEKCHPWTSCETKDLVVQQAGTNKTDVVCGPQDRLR
T1 sequence (P08637 17-208): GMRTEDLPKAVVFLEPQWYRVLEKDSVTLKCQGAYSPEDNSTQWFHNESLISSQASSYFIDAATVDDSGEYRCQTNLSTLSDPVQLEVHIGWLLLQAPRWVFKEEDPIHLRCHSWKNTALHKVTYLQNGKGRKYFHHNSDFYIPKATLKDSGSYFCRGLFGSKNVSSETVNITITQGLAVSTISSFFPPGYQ

B2: Fc fragment of heavy chain constant region G1-GASDALIE (hIgG1 G236A/S239D/A330L/I332E) (other)
chain: PELLAGPDVFLFPPKPKDTLMISRTPEVTCVVVDVSHEDPEVKFNWYVDGVEVHNAKTKPREEQYNSTYRVVSVLTVLHQDWLNGKEYKCKVSNKALPLPEEKTISKAKGQPREPQVYTLPPSRDELTKNQVSLTCLVKGFYPSDIAVEWESNGQPENNYKTTPPVLDSDGSFFLYSKLTVDKSRWQQGNVFSCSVMHEALHNHYTQKSLSLSPGK
Kd [2]: 740 nM
Kd [3]: 63 nM

Binder: B4
Kd [6]: 3000 nM

Binder: B5
Kd [6]: 1200 nM

B8: Anti-hCD40-hIgG1 (antibody)
heavy: not shown
light: DIQMTQSPSSVSASVGDRVTITCRASQGIYSWLAWYQQKPGKAPNLLIYTASTLQSGVPSRFSGSGSGTDFTLTISSLQPEDFATYYCQQANIFPLTFGGGTKVEIKRTVAAPSVFIFPPSDEQLKSGTASVVCLLNNFYPREAKVQWKVDNALQSGNSQESVTEQDSKDSTYSLSSTLTLSKADYEKHKVYACEVTHQGLSSPVTKSFNRGEC
notes: Human anti-human CD40 antibody with the light chain and VH of CP-870893; heavy chain constant region G1
EC50 (read off the curve) [10]: ~0.2 µg/mL
binding result [11]: binds

B9: Anti-hCD40-hIgG3 (antibody)
heavy: not shown
light: DIQMTQSPSSVSASVGDRVTITCRASQGIYSWLAWYQQKPGKAPNLLIYTASTLQSGVPSRFSGSGSGTDFTLTISSLQPEDFATYYCQQANIFPLTFGGGTKVEIKRTVAAPSVFIFPPSDEQLKSGTASVVCLLNNFYPREAKVQWKVDNALQSGNSQESVTEQDSKDSTYSLSSTLTLSKADYEKHKVYACEVTHQGLSSPVTKSFNRGEC
notes: Human anti-human CD40 antibody, heavy chain constant region G3
EC50 (read off the curve) [10]: ~0.1 µg/mL

Second part, the binder after the results:

binding result [1]: binds
B1: Anti-mCD40-hIgG2-GASDALIE (antibody)
heavy: EVQLVESDGGLVQPGRSLKLPCAASGFTFSDYYMAWVRQAPTKGLEWVASISYDGSSTYYRDSVKGRFTISRDNAKSTLYLQMDSLRSEDTATYYCGRHSSYFDYWGQGVMVTVSSASTKGPSVFPLAPCSRSTSESTAALGCLVKDYFPEPVTVSWNSGALTSGVHTFPAVLQSSGLYSLSSVVTVPSSNFGTQTYTCNVDHKPSNTKVDKTVERKCCVECPPCPAPELLAGPDVFLFPPKPKDTLMISRTPEVTCVVVDVSHEDPEVKFNWYVDGVEVHNAKTKPREEQYNSTYRVVSVLTVLHQDWLNGKEYKCKVSNKALPLPEEKTISKAKGQPREPQVYTLPPSRDELTKNQVSLTCLVKGFYPSDIAVEWESNGQPENNYKTTPPVLDSDGSFFLYSKLTVDKSRWQQGNVFSCSVMHEALHNHYTQKSLSLSPGK
light: DTVLTQSPALAVSPGERVTISCRASDSVSTLMHWYQQKPGQQPKLLIYLASHLESGVPARFSGSGSGTDFTLTIDPVEADDTATYYCQQSWNDPWTFGGGTKLELKRTVAAPSVFIFPPSDEQLKSGTASVVCLLNNFYPREAKVQWKVDNALQSGNSQESVTEQDSKDSTYSLSSTLTLSKADYEKHKVYACEVTHQGLSSPVTKSFNRGEC
notes: Chimeric anti-murine CD40 antibody

binding result [4]: no binding
Kd [2]: 94 nM
Kd [3]: 4100 nM
Kd [5]: 580 nM
B3: Fc fragment of heavy chain constant region V9(H1) (hIgG1 G237D/P238D/P271G/A330R) (other)
chain: PELLGDDSVFLFPPKPKDTLMISRTPEVTCVVVDVSHEDGEVKFNWYVDGVEVHNAKTKPREEQYNSTYRVVSVLTVLHQDWLNGKEYKCKVSNKALPRPIEKTISKAKGQPREPQVYTLPPSRDELTKNQVSLTCLVKGFYPSDIAVEWESNGQPENNYKTTPPVLDSDGSFFLYSKLTVDKSRWQQGNVFSCSVMHEALHNHYTQKSLSLSPGK

binding result [4]: no binding
folds of increase in hFcγRIIB binding [7]: 94 fold
Kd [2]: 14 nM
Kd [3]: 3800 nM
Kd [5]: 230 nM
I/A ratio [8]: 271
B6: Fc fragment of heavy chain constant region V11(H1) (hIgG1 G237D/P238D/H268D/P271G/A330R) (other)
chain: PELLGDDSVFLFPPKPKDTLMISRTPEVTCVVVDVSDEDGEVKFNWYVDGVEVHNAKTKPREEQYNSTYRVVSVLTVLHQDWLNGKEYKCKVSNKALPRPIEKTISKAKGQPREPQVYTLPPSRDELTKNQVSLTCLVKGFYPSDIAVEWESNGQPENNYKTTPPVLDSDGSFFLYSKLTVDKSRWQQGNVFSCSVMHEALHNHYTQKSLSLSPGK

binding result [9]: no binding
folds of increase in hFcγRIIB binding [7]: < 0.4 fold
B7: Fc fragment of heavy chain constant region G2 (hIgG2) (other)
chain: PPVAGPSVFLFPPKPKDTLMISRTPEVTCVVVDVSHEDPEVQFNWYVDGVEVHNAKTKPREEQFNSTFRVVSVLTVVHQDWLNGKEYKCKVSNKGLPAPIEKTISKTKGQPREPQVYTLPPSREEMTKNQVSLTCLVKGFYPSDIAVEWESNGQPENNYKTTPPMLDSDGSFFLYSKLTVDKSRWQQGNVFSCSVMHEALHNHYTQKSLSLSPGK

binding result [12]: binds
B10: Anti-hCD40-hIgG2(V11) (antibody)
heavy: not shown
light: DIQMTQSPSSVSASVGDRVTITCRASQGIYSWLAWYQQKPGKAPNLLIYTASTLQSGVPSRFSGSGSGTDFTLTISSLQPEDFATYYCQQANIFPLTFGGGTKVEIKRTVAAPSVFIFPPSDEQLKSGTASVVCLLNNFYPREAKVQWKVDNALQSGNSQESVTEQDSKDSTYSLSSTLTLSKADYEKHKVYACEVTHQGLSSPVTKSFNRGEC
notes: Human anti-human CD40 antibody, heavy chain constant region V11(H2), i.e. JAC1; also called anti-human CD40 antibody comprising JAC1

binding result [11]: no binding
B11: Anti-hCD40-hIgG2-NA (antibody)
heavy: not shown
light: DIQMTQSPSSVSASVGDRVTITCRASQGIYSWLAWYQQKPGKAPNLLIYTASTLQSGVPSRFSGSGSGTDFTLTISSLQPEDFATYYCQQANIFPLTFGGGTKVEIKRTVAAPSVFIFPPSDEQLKSGTASVVCLLNNFYPREAKVQWKVDNALQSGNSQESVTEQDSKDSTYSLSSTLTLSKADYEKHKVYACEVTHQGLSSPVTKSFNRGEC
notes: Human anti-human CD40 antibody, heavy chain constant region G2-NA (N297A)
